Test results taken from US11370825B2, “Polypeptides, cells, and methods involving engineered CD16” (Regents of the University of Minnesota, priority 2014, dated 2022).
Changes are numbered by the printed parent chain. Names and notes keep the numbering of the source.

Columns and labels:
ADAM17 [1] = assay: Soluble CD16b released from transfected HEK293 cells, ELISA of media supernatant (shedding); type: cell-based, human
Method: (§1) FIG. 3. Effects of the engineered S197P mutation on CD16a and CD16b shedding. Transfected HEK293 (human embryonic kidney) cells separately expressed CD16b and CD16b/S197P (A) or CD16a and CD16a/S197P (B) at similar levels, as determined by flow cytometry (left panels). The different transfectants were treated with or without PMA (15 ng/ml for 30 minutes at 37° C.) and soluble levels of CD16 in the media supernatant were quantified by ELISA (right panels). Each treatment condition was repeated three times for each experiment and the data are representative of three independent experiments. Bar graphs show mean±SD. Statistical significance is indicated as ***P<0.001. (C) Transfected HEK293 cells expressed L-selectin (CD62L) or L-selectin and CD16b/S197P. Surface levels of L-selectin and CD16b/S197P on transfected and mock-transfected cells were measured using flow cytometry (histogram plots). Transfectants expressing L-selectin or L-selectin and CD16b/S197P were incubated in the presence or absence of PMA for 30 minutes at 37° C., and the mean fluorescence intensity (MFI) of L-selectin staining determined (bar graph). Each treatment condition was repeated three times for each experiment and the data are representative of two independent experiments. Bar graphs show mean±SD. Statistical significance is indicated as *P<0.05. For all histogram plots, the x-axis=Log 10 fluorescence and the y-axis=cell number.
HEK293 cells (a human embryonic kidney cell line) and NK92 cells (a human NK cell line) (ATCC, Manassas, Va.) were cultured according to the depository's instructions. HEK293 cells were transiently transfected with pcDNA3.1 with or without CD16b, CD16b/S197P, and/or L-selectin using Lipofectamine 2000 (Invitrogen, Carlsbad, Calif.) according to the manufacturer's instructions. HEK293 cells stably expressing human FcRγ were transiently transfected with pcDNA3.1 with or without CD16a or CD16a/S197P by the same approach. NK92 cells were stably transduced with pBMN-IRES-EGFP with or without CD16a or CD16a/S197P by retrovirus generation and infection procedures described previously (Matala et al., 2001, J Immunol. 167:1617-1623; Walcheck et al., 2003, J Leukoc Biol. 74:389-394; Wang et al., 2009, J Immunol. 182:2449-2457). Construct expression was assessed by EGFP fluorescence and CD16 staining, as determined by flow cytometry. Human iPSCs (UCBiPS7, derived from umbilical cord blood CD34 cells) were maintained on mouse embryonic fibroblasts (Knorr et al., 2013, Stem Cells Transl Med. 2:274-283; Ni et al., 2014, Stem Cells 32:1021-1031). Stable expression of CD16a or CD16a/S197P was performed using a Sleeping Beauty transposon system as previously described (Wilber et al., 2007, Stem Cells 25:2919-2927; Tian et al., 2009, Stem Cells 27:2675-2685). […]

ADAM17 [2] = assay: L-selectin surface down-regulation in HEK293 transfectants expressing or lacking CD16b/S197P (ADAM17 activity control); type: cell-based, human; conditions: HEK293 cells expressing versus lacking CD16b/S197P; PMA 30 minutes at 37° C.
Method: as §1, with “(C) Transfected HEK293 cells expressed L-selectin (CD62L) or L-selectin and CD16b/S197P.” left out, “Each treatment condition was repeated three times for each experiment and the data are representative of two independent experiments. Bar graphs show mean±SD. Statistical significance is indicated as *P<0.05.” left out
HEK293 cells (a human embryonic kidney cell line) and NK92 cells (a human NK cell line) (ATCC, Manassas, Va.) were cultured according to the depository's instructions. […] Construct expression was assessed by EGFP fluorescence and CD16 staining, as determined by flow cytometry. […]

[3] = HEK293 transfectants treated with PMA 15 ng/ml for 30 minutes at 37° C.
[4] = untreated transfected HEK293 cells

B1: CD16b: Wild-type human IgG Fc receptor CD16b (FcγRIIIb), NA1 allelic variant, recombinant comparator (protein, listed as Homo sapiens)
chain: MWQLLLPTALLLLVSAGMRTEDLPKAVVFLEPQWYRVLEKDSVTLKCQGAYSPEDNSTQWFHNENLISSQASSYFIDAATVDDSGEYRCQTNLSTLSDPVQLEVHVGWLLLQAPRWVFKEEDPIHLRCHSWKNTALHKVTYLQNGKDRKYFHHNSDFHIPKATLKDSGSYFCRGLVGSKNVSSETVNITITQGLAVSTISSFS
For B1, the “soluble levels of CD16 in media supernatant” value (“soluble levels of CD16” below) (ADAM17 [1]; [3]) was “increased further” and the “soluble levels of CD16” value (ADAM17 [1]; [4]) was “High levels”.

B2: CD16b/S197P: Human CD16b (FcγRIIIb, SEQ ID NO:2, NA1 variant) with serine-197 substituted by proline; expressed in HEK293 cells (protein, listed as Homo sapiens)
chain: B1 chain with S197P
In the case of B2, the “L-selectin down-regulation following activation with PMA” value (ADAM17 [2]) is reported as “similarly down-regulated”, the “soluble levels of CD16” value (ADAM17 [1]; [3]) is reported as “markedly lower” and the “soluble levels of CD16” value (ADAM17 [1]; [4]) is reported as “markedly lower”.
